One data set has as its system LNCaP. Briefly: Expansion inhibition of tumor cells (Example 9, CellTiter-Glo). It is filed as cell-based, human. To be noted: 72 h. The source says: (§1) Information on cell lines: LNCaP (human prostate cancer cell) and VCaP (human prostate cancer cell)
(§2) Negative and blank controls were set.
In general terms: In ATP-based viability assays light output follows the ATP content of the culture.

Another data set has as its system VCaP. The data set is described as above. It is filed as cell-based, human. Conditions: 72 h.
Source text: as §1, §2

A further data set is described as follows: Solubility study in PBS. The data set is classed as physicochemical. To be noted: aqueous buffer, thermodynamic from solid; PBS (pH 7.2 to 7.4); read-out: Solubility, concentration. The method, then:
The mixture was vortexed for 2 min until the solid was dissolved. The solubility was calculated as: C=m/V, C: concentration, m: sample weight, V: PBS total volume.

Another data set in a line: Plasma stability study 2. It is filed as in vitro ADME. To be noted: mouse plasma, 37° C.; for remaining at 0.5 h, 100 μg/mL / remaining at 1 h, 100 μg/mL / remaining at 2 h, 100 μg/mL / remaining at 4 h, 100 μg/mL / remaining at 6 h, 100 μg/mL: read-out: Residual rate of principal component.
A further data set concerns 22RV1. The data set is classed as cell-based, human. To be noted: 22RV1, 72 h, CellTiter-Glo.
Source text: as §2

A further data set concerns MDA-MB-231. The data set is classed as cell-based, human. To be noted: MDA-MB-231, 72 h, CellTiter-Glo.
Source text: as §2

For the next data set, the target named is T1, BRD4 (Homo sapiens, UniProt O60885).
T1 construct: endogenous in cells; host or cells: MDA-MB-231, 22RV1
Kind of data set: Target protein degradation activity, Western Blot. The data set is classed as cell-based. The method, then:
Information on cell lines: MDA-MB-231 (human breast cancer cell) and 22RV1 (human prostate cancer cell)
• 1) A proper amount of RIPA lysis buffer was added to the Protease Inhibitor Cocktail (1:100) a few minutes before use. • 2) The medium of the cells was discarded. The cells were collected by cell scraper, centrifuged, and washed twice with pre-cooled PBS. The lysis buffer was added at 300 μL per dish. The centrifuge tube was placed on ice and mixed by pipetting for 5 min to allow the lysis buffer to fully contact the cells. • 3) After 30 min of lysis, the lysate was collected, transferred to a centrifuge tube, and centrifuged for 15 min at 12000×g to pelletize the cell debris. • 4) The supernatant was transferred to a new centrifuge tube, for subsequent Western Blot. […]
The antibody marked by HRP was coupled with an enhanced chemiluminescence reagent for chromogenesis, and the exposure was conducted via an X-ray film. The positions of the antigen-antibody (primary antibody)-antibody (secondary antibody) complex on the nitrocellulose membrane were determined by means of development, washing, and fixation. […]

Another data set concerns β-glucosidase. To be noted: PBS pH 6.8, 25° C.
The next data set relates to C4-2. To be noted: C4-2, 72 h, CellTiter-Glo.
In data set [1] the test system is sulfatase. Conditions: PBS pH 7.4, 37° C.
Description: (§3) • 1) The compounds were formulated into 500 μg/mL stock solutions with PBS (pH 7.4); • 2) 60 μL of 500 μg/mL compound stock solution was added to 420 μL PBS (pH 7.4), before 60 μL of 0.2 U/mL plasmin (or 60 μL of 0.5 U/mL sulfatase) was added, and the mixture was well mixed by gentle shaking; • 3) The cleavage reaction system in step 2) was transferred to a thermostatic incubator at 37° C. for 0 h, 1 h, 2 h, 4 h, or 24 h of incubation. Samples were taken and loaded at various time points for LC-MS analysis.
The subject of data set [2] is sulfatase. Briefly: in vitro. To be noted: isolated sulfatase, pH 7.4.
Description: as §3

Converted amounts (≈) assume the structure as drawn. Where two headings read alike, the source gives them in different places.

For orientation: IC50 means the concentration at which inhibition is half-maximal. A higher IC50 goes with weaker potency.

Description for C4-2: Cells were prepared in advance, trypsinized, collected, counted, diluted to 1.5×10^4 cells/mL in a complete cell culture medium, and plated in 96-well plates. The diluted cell suspension was added at 100 μL/well, and negative and blank control wells were set on each plate. The 96-well plates with the added cells were incubated overnight at 37° C. in a 5% CO2 incubator.
Samples were serially diluted with medium (serially 3-fold diluted from 10 μM) to 9 concentrations. The medium in the plates was discarded, and the drug solutions were added at 100 μL per well to a 96-well plate in triplicate. Negative and blank controls were set. The plates were incubated at 37° C. for 72 h in a 5% CO2 incubator.
The CellTiter-Glo buffer was thawed and warmed to room temperature, and the CellTiter-Glo substrate was warmed to room temperature. The CellTiter-Glo buffer was added to the flask containing CellTiter-Glo substrate to dissolve the substrate, thereby preparing a CellTiter-Glo working solution, which was then vortexed slowly to complete dissolution. The cell culture plates were equilibrated at room temperature for 30 min, before the CellTiter-Glo working solution was added at 50 μL/well (about half the volume of cell culture medium in each well). The plate was covered by aluminum foil to keep out of light. The culture plate was shaken on an orbital shaker for 2 min to induce cell lysis. The culture plate was left to stand at room temperature for 10 min to stabilize the luminescence signals. The luminescence signal was detected on a microplate reader (Molecular Devices SpectraMax iD5).
Four-parameter curves were fitted using GraphPad Prism 8.0.2 to give IC50 values.
Description for Plasma stability study 2: • 1) The conjugate compounds were prepared into 1 mg/mL stock solutions with 0.1% TFA-acetonitrile water (1:1); • 2) 10 μL of 1 mg/mL compound stock solution was added into 90 μL of fresh plasma, and the mixture was well mixed by gentle shaking, and transferred to a thermostatic incubator at 37° C. for 0 h, 0.5 h, 1 h, 2 h, 4 h, 6 h, or 24 h of incubation; • 3) at the time points, samples were taken out and 300 μL of methanol solution (containing 10 ng/ml of terfenadine) was added for protein precipitation; • 4) the mixture was centrifuged (13 min, 4° C., 12000 rpm) and the supernatant was collected, and preserved in a −80° C. refrigerator; after collection, the samples were loaded for LC-MS analysis.
Description for β-glucosidase: • 1) CR202AL was formulated into a 500 μg/mL stock solution with PBS (pH 6.8); • 2) 100 μL of 500 μg/mL compound stock solution was added to 775 μL of PBS (pH=6.8) before 125 μL of 100 U/mL β-glucosidase was added, and the mixture was well mixed by gentle shaking. • 3) The cleavage reaction system in step 2) was transferred to a thermostatic incubator at 25° C. for 0 h, 1 h, 2 h, 4 h, or 24 h of incubation. Samples were taken and loaded at various time points for LC-MS analysis.

In the case of `Cc1ncsc1-c1ccc(C(C)NC(=O)C2CC(O)CN2C(=O)C(NC(=O)COCCCOCCNC(=O)CC2N=C(c3ccc(Cl)cc3)c3c(sc(C)c3C)-n3c(C)nnc32)C(C)(C)C)cc1` (stereo not drawn) [CR202ES, ARV-771], the IC50 in the data set on LNCaP (Homo sapiens) was determined as 8.7 nM; in the data set with VCaP (Homo sapiens), 10.9 nM.
As for `CC[C@@H]1C(=O)N(C)c2cnc(Nc3ccc(-c4cn([C@H]5CC[C@@H](N(CCOCCC#Cc6cccc7c6CN(C6CCC(=O)NC6=O)C7=O)C(=O)OCc6ccc(O[C@@H]7O[C@H](C(=O)O)[C@@H](O)[C@H](O)[C@H]7O)c(NC(=O)CCNC(=O)COCCOCCn7cc(C[C@H](NC(=O)[C@H](CCCCN)NC(=O)[C@H](CC(=O)O)NC(=O)[C@H](CC(=O)O)NC(=O)Cc8ccc(CNC(=O)NCCCC[C@H](NC(=O)N[C@@H](CCC(=O)O)C(=O)O)C(=O)O)cc8)C(=O)N[C@@H](CCCCNC(=O)CC[C@H](NC(=O)c8ccc(NCc9cnc%10[nH]c(N)nc(=O)c%10n9)cc8)C(=O)O)C(N)=O)nn7)c6)CC5)nn4)cc3OC)nc2N1C1CCCC1` (stereo partly drawn) [CR202AL], the solubility at 2 min in “Solubility study in PBS” was found to be 5700 µg/mL (≈ 1910 µM). Also, the “CR20274 release rate (actual release/theoretical release)” value was 0.01% in “Plasma stability study 2” (0 h); 0.47% in “Plasma stability study 2” (0.5 h); 0.86% in “Plasma stability study 2” (1 h); 0.96% in the data set “Plasma stability study 2” (2 h); 2.60% in the data set “Plasma stability study 2” (4 h); 3.69% in the data set “Plasma stability study 2” (6 h). For the same compound, in “Plasma stability study 2” (24 h), the “CR20274 release rate (actual release/theoretical release)” value was 28.17%. Besides, the “Residual rate of principal component” value in “Plasma stability study 2” (0 h) was 76.04%; in the data set “Plasma stability study 2” (24 h), 1.20%. Further, in the data set “Plasma stability study 2” (0.5 h), the remaining at 0.5 h, 100 μg/mL came out at 69.8%. Also, the remaining at 1 h, 100 μg/mL in the data set “Plasma stability study 2” (1 h) amounted to 78.1%. Moreover, in “Plasma stability study 2” (2 h), the remaining at 2 h, 100 μg/mL came out at 75.6%. Moreover, the remaining at 4 h, 100 μg/mL in the data set “Plasma stability study 2” (4 h) stood at 74.9%. Further, the remaining at 6 h, 100 μg/mL in “Plasma stability study 2” (6 h) turned out to be 57.1%. Also, the IC50 in the data set on 22RV1 is 6.3 nM; with MDA-MB-231, 2.5 nM; with C4-2 it was 0.5 nM. For the same compound, the entries for the “Degradation of BRD4 (Western Blot)” value at BRD4 (3 nM over 6 h) and on BRD4 (at 24 h (FIG. 4B)) were “almost completely degrading” and “still retain strong degradation activity”, respectively. The “CR20274 release rate of CR202AL after cleavage” value in the data set with β-glucosidase (0 h) stood at 5.16%; with β-glucosidase (1 h) it was 107.33%; in the data set with β-glucosidase (2 h), 146.03%; in the data set on β-glucosidase (4 h), 146.54%; with β-glucosidase (24 h) it was 100.80%. Moreover, the “Principal component residue of CR202AL after cleavage” value in the data set with β-glucosidase (0 h) is given as 100.00%; in the data set on β-glucosidase (1 h), 26.70%; in the data set on β-glucosidase (2 h), 9.75%; in the data set on β-glucosidase (4 h), 4.87%; in the data set on β-glucosidase (24 h) it was 0.00%.
Take `Cc1ncsc1-c1ccc([C@H](CC(=O)N2CCC(N3CCC(C#Cc4ccc(C(=O)NC5C(C)(C)C(Oc6ccc(C#N)c(Cl)c6)C5(C)C)cc4)CC3)CC2)NC(=O)[C@@H]2C[C@@H](O)CN2C(=O)[C@@H](NC(=O)C2(F)CC2)C(C)(C)C)cc1` (stereo partly drawn) [CR202Z9, ARD-69]: the IC50 worked out at 418 nM in the data set on LNCaP and 12.4 nM with VCaP.
For the compound `Cc1ncsc1-c1ccc(CNC(=O)[C@@H]2C[C@@H](O)CN2C(=O)[C@@H](NC(=O)COCCCCOc2ccc(-c3ccc(N4C(=S)N(c5ccc(C#N)c(C(F)(F)F)c5)C(=O)C4(C)C)cc3)cc2)C(C)(C)C)cc1` [CR202Z5, ARCC-4], the IC50 is 373 nM in the data set with LNCaP (Homo sapiens) and 183 nM with VCaP (Homo sapiens).
Consider `CC[C@@H]1C(=O)N(C)c2cnc(Nc3ccc(-c4cn([C@H]5CC[C@@H](N(CCOCCC#Cc6cccc7c6CN(C6CCC(=O)NC6=O)C7=O)C(=O)OC(Cc6cn(CCOCCOCCNC(=O)COCCOCCn7cc(C[C@H](NC(=O)[C@H](CCCCN)NC(=O)[C@H](CC(=O)O)NC(=O)[C@H](CC(=O)O)NC(=O)Cc8ccc(CNC(=O)NCCCC[C@H](NC(=O)N[C@@H](CCC(=O)O)C(=O)O)C(=O)O)cc8)C(=O)N[C@@H](CCCCNC(=O)CC[C@H](NC(=O)c8ccc(NCc9cnc%10[nH]c(N)nc(=O)c%10n9)cc8)C(=O)O)C(N)=O)nn7)nn6)c6ccc(OS(=O)(=O)O)c([N+](=O)[O-])c6)CC5)nn4)cc3OC)nc2N1C1CCCC1` (stereo partly drawn) [CR202W1], for which, in “Solubility study in PBS”, the solubility at 2 min is 8100 µg/mL (≈ 2650 µM). Also, the “CR20274 release rate (actual release/theoretical release)” value was found to be 0.68% in the data set “Plasma stability study 2” (0 h); 0.63% in the data set “Plasma stability study 2” (0.5 h); 0.83% in the data set “Plasma stability study 2” (1 h); 0.80% in the data set “Plasma stability study 2” (2 h); 0.96% in “Plasma stability study 2” (4 h); 0.88% in “Plasma stability study 2” (6 h). The “CR20274 release rate (actual release/theoretical release)” value in “Plasma stability study 2” (24 h) was 2.82%. Besides, the “Residual rate of principal component” value was 105.30% in “Plasma stability study 2” (0 h) and −2.67% in the data set “Plasma stability study 2” (24 h). Moreover, the remaining at 0.5 h, 100 μg/mL in “Plasma stability study 2” (0.5 h) is 89.4%. For the same compound, in the data set “Plasma stability study 2” (1 h), the remaining at 1 h, 100 μg/mL was determined as 103%. The remaining at 2 h, 100 μg/mL in the data set “Plasma stability study 2” (2 h) turned out to be 105%. Besides, in the data set “Plasma stability study 2” (4 h), the remaining at 4 h, 100 μg/mL was 108%. For the same compound, in “Plasma stability study 2” (6 h), the remaining at 6 h, 100 μg/mL turned out to be 84.8%. The IC50 in the data set with 22RV1 turned out to be 112 nM; in the data set with MDA-MB-231, 120 nM; with C4-2, 43.2 nM. The “CR20274 release rate of compounds after cleavage” value in the data set on sulfatase [1] (0 h) amounted to 0%; with sulfatase [1] (1 h) it was 9%; in the data set with sulfatase [1] (2 h), 15%; in the data set on sulfatase [1] (4 h), 27%; in the data set with sulfatase [1] (24 h), 56%. For the same compound, the “Principal component residue of compounds after cleavage” value with sulfatase [1] (0 h) is given as 97%. The remaining at 1 h, 55.6 µg/mL in the data set on sulfatase [2] was determined as 89%. In addition, the remaining at 2 h, 55.6 µg/mL in the data set with sulfatase [2] was 80%. The remaining at 4 h, 55.6 µg/mL in the data set with sulfatase [2] is 69%. Also, the remaining at 24 h, 55.6 µg/mL in the data set on sulfatase [2] was found to be 37%.
Regarding `Cc1ncsc1-c1ccc(CNC(=O)[C@@H]2C[C@@H](OC(=O)OCc3ccc(NC(=O)[C@H](CCCNC(N)=O)NC(=O)[C@@H](NC(=O)COCCOCCn4cc(C[C@H](NC(=O)[C@H](CCCCN)NC(=O)[C@H](CC(=O)O)NC(=O)[C@H](CC(=O)O)NC(=O)Cc5ccc(CNC(=O)NCCCC[C@H](NC(=O)N[C@@H](CCC(=O)O)C(=O)O)C(=O)O)cc5)C(=O)N[C@@H](CCCCNC(=O)CC[C@H](NC(=O)c5ccc(NCc6cnc7[nH]c(N)nc(=O)c7n6)cc5)C(=O)O)C(N)=O)nn4)C(C)C)cc3)CN2C(=O)[C@@H](NC(=O)CCCCCCCCCCNC(=O)c2cc3c(cc2CS(C)(=O)=O)-c2cn(C)c(=O)c4[nH]cc(c24)CN3c2ncc(F)cc2F)C(C)(C)C)cc1` [CR202W8], the values for the IC50 in the data set with LNCaP and in the data set on VCaP were 5.3 nM and 2.7 nM, respectively.
